Key:
[1] = tested on: Bifidobacterium longum endo-α-GalNAcase EngBF, SEQ ID NO:5; conditions: Core 1 substrate; data from Fujita et al. (2005); cited from earlier work
[2] = biological target: Propionibacterium acnes endo-α-GalNAcase EngPA (YP_056270.1), SEQ ID NO:3 (Cutibacterium acnes, UniProt A0ABM7H013); assay: Steady-state enzyme kinetics of EngPA; conditions: EngPA compared with EngEF
[3] = tested on: CC(=O)N[C@H]1[C@@H](Oc2ccc([N+](=O)[O-])cc2)O[C@H](CO)[C@H](O)[C@@H]1O[C@@H]1O[C@H](CO)[C@H](O)[C@H](O)[C@H]1O; assay: purified protein, by the assay type; conditions: 25.0 °C
[4] = Hydrolysis of pNP substrates, colorimetric assay (Galβ1,3GlcNAc); type: biochemical
[5] = Hydrolysis of pNP substrates, colorimetric assay (Core 3); type: biochemical
[6] = Hydrolysis of pNP substrates, colorimetric assay (GalNAc); type: biochemical; conditions: GalNAcα1pNP, 25° C., 16 h, 405 nm
[7] = Hydrolysis of pNP substrates, colorimetric assay (Core 1); type: biochemical; conditions: Galβ1,3GalNAcα1pNP Core 1, 0.25 mM substrate, 25° C., 16 h, 405 nm
[8] = Transglycosylation to 1-alkanols, Core 3 donor (TLC); type: biochemical; conditions: 0.8 mM GlcNAcβ1,3GalNAcα1ρNP donor, 1-alkanols as acceptors, room temperature, 16 h
Excerpt: The transglycosylation activity can be similarly determined for EngAA*.

[9] = Hydrolysis of pNP substrates, colorimetric assay (Core 2); type: biochemical; conditions: Galβ1,3(GlcNAcβ1,6)GalNAcα1pNP Core 2, 25° C., 16 h, 405 nm
[10] = tested on: CC(=O)N[C@H]1[C@H](O[C@H]2[C@@H](O)[C@@H](CO)O[C@H](Oc3ccc([N+](=O)[O-])cc3)[C@@H]2NC(C)=O)O[C@H](CO)[C@@H](O)[C@@H]1O; assay: purified protein, by the assay type; conditions: other: Core 3 substrate, 25° C., average of three measurements

Row | Molecule | % product released [4] [%] | % product released [5] [%] | % product released [6] [%] | % product released [7] [%] | transglycosylation products [8] | % product released [9] [%] | other results
1 | CC(=O)N[C@H]1[C@@H](Oc2ccc([N+](=O)[O-])cc2)O[C@H](CO)[C@H](O)[C@@H]1O[C@@H]1O[C@H](CO)[C@H](O)[C@H](O)[C@H]1O [Galβ1,3GalNAcα1ρNP] | – | – | – | – | – | – | Km [1]: 21.8 µM; kcat [1]: 17.8 s⁻¹; kcat, times lower than EngEF ([2]; Core 1 substrate): about 25 times
2 | CC(=O)N[C@H]1[C@H](O[C@H]2[C@@H](O)[C@@H](CO)O[C@H](Oc3ccc([N+](=O)[O-])cc3)[C@@H]2NC(C)=O)O[C@H](CO)[C@@H](O)[C@@H]1O [GlcNAcβ1,3GalNAcα1ρNP] | – | – | – | – | – | – | kcat, times higher than EngEF ([2]; Core 3 substrate): 3 times
3 | Clostridium perfringens endo-α-GalNAcase EngCP (YP_695137.1), SEQ ID NO:6 (Clostridium perfringens ATCC 13124) | – | – | – | – | – | – | Km [3]: 70.93 µM; kcat [3]: 19.9 s⁻¹
4 | EngSP: endo-α-GalNAcase from Streptococcus pneumoniae, purchased from Roche [reference compound] | 0 | 3 | 1.2 | 100 | no significant difference | 0.6 | –
5 | Enterococcus faecalis endo-α-GalNAcase EngEF (NP_815498.1), SEQ ID NO:2 (Enterococcus faecalis V583) | – | – | – | – | – | – | kcat [10]: 9.43 s⁻¹
6 | Propionibacterium acnes endo-α-GalNAcase EngPA (YP_056270.1), SEQ ID NO:3 (Cutibacterium acnes subsp. acnes) | – | – | – | – | – | – | kcat [10]: 28.9 s⁻¹
7 | EngEF: recombinant endo-α-GalNAcase (O-glycosidase) of Enterococcus faecalis (protein, listed as Enterococcus faecalis) MKHGKIKRFSTLTLLASATILVPLSTSAEETTNSSTETSSSMVEPTATEEKLWQSDFPGGKTGEWQDVIGKTNRELAGESLAISRDAAAGNNAVSLNLDSPKLADGEVETKFKYTAGSGRTGVIIRGNTKDSWVFVGYNANGKWLVESPNSWNDSISGPTLNEDTNYLLKVRYVGEKITIWLNTTLIYEGEPVLANGDKIPTEAGHVGVRLWYDKKIVNYDYFKNGPVDSIPEIVPEVTQIAPVKVFTKIGVAPKLPKQVKVTYNTGKEANEAVRWNEIDPDAYKEPGTFEVDGTLENTNIKAKASIVVAKDNEAEKGDKISSADLTAVVDPQFPRIIRYEDPQSNQVIFNGQHEKIDQVMIDGKAYKATAEKQKSEANQAVYNVAVPEIGLRFTTTLTVSEGQELAMKLSDIREEGTKIHTISIPNQGLISVNSTDEGATFAGVVMNTGTNANNGNKNGDTIQDLTTTSQEETKKYMYGFLNTANYAASFWTNAYGDGSVDGSDNNRIHKQTKEAATGFVTTLSSGAWTYRPFDAPEDYTTGETPEVKVKFSKDSNDDNRVDWQDAAIGFRSIMNNPMGAEKVPELVNQRIPFNFASQATNPFLVTLDESKRIYNLTDGLGQMNLLKGYQNEGHDSAHPDYGAIGQRPGGEQALNQLIDEGHKLNAVFGVHINDTESYPEAKGFNEELVDPTKRGWDWLDPSYFIKQRPDTLSGRRYERFKELKQKAPNLDYIYVDVWGNQGESGWASRQLSKEINSLGWFTTNEFPNALEYDSVWNHWSAEKDYGGTTTKGFNSTIVRFIRNHQKDTWIISDNPLLGGAEFEAYEGWVGKTNFNTYRQKTFAINVPTKFLQHYQITNWETTTAADGQIYGTIKLANGAEKVTVTQADANSPRSITLNETEVLKGDAYLLPWNVNGQDKLYHWNPKGGTSTWSLDKKMQGKTNLHLYELTDQGRIDKGAIATTNNQVTIQAEANTPYVIAEPDSIEPMTFGTGTPFKDPGFNEANTLKNNWKVFRGDGEVKKDANGDYVFSSEKERTEIKQDINLPKPGKYSLYLNTETHDRKATVTVKIGGKKYTRTVNNSVAQNYIQADINHTSRKNPQYMQNMRIDFEIPDNAKKGSVTLAVDKGNSVTKFDDLRIVERQTDIMNPDKQTVIKQDFEDTQAVGLYPFVKGSAGGVEDPRIHLSERNEPYTQYGWNGNLVSDVLEGNWSLKAHKQGAGLMLQTIPQNIKFEPNKKYTVQFDYQTDGENVFTAGTINGELKNNNDFKPVGELTSTAADGQTKHYEAEIIGDASGNTTFGIFTTGADKDFIMDNFTVTVESKK | 0 | 100 | 2.2 | 100 | no significant difference | 2 | hydrolysis of the Core 3 disaccharide (in words) [5]: fully hydrolyzing
8 | EngPA: recombinant endo-α-GalNAcase of Propionibacterium acnes (protein, Propionibacterium acnes) MSRTPRGRSIGALAVSAGTMLALIAPTAPAHAETRYRQINQAAITAVAADSATATDPISNTLDGNPDTIWHTTWQNGKDPLPHWIVFKLGDEAVNLGKVEITPRSSSNGSGRMHDYELYTANTKTCNNAAFSSAKPVATGSYGASDTSIRKITFAATKATCVKVKVNSSWGGDGSDEEVSSMAEFNAFTVDGSDPSPDPTPSEPPTPEVPKDAISLSDGTVTVRARRDFPQVIDYTVGHAHMAGRIGSPLTKVRINGADHVATVSAPTTTGSSASWKLTFRDLPGVELTADIKVSDGVMTWSIPHIVDTPDHRVNTVSVPGLTLASVTSTDPKAQLSSANIVVDRNKTGDLFQPLATADVSQDTSWVAMANDSTLAAGFEDNATQDGLVGSAATVARFVHSISQVGGTKVGAIEPATWVHRGKGSATPFPTDSLGNKAVCQLPGGATVKDGIGPDPDTPYVRVKIVADANADGKVDWQDAAVATRDVTMKPTGSGDVANKVITHIPFNIVSQATHPFLRTLDDVKRISLATDGLGQQALLKGYQAEGHDSAHPDYGGNVSHRAGGMKDLEKLTESGRQWNTDFGIHVNLVESYPEANHFGDNILVKPYQKAWDWMEQSYRMDYAKDLGSGQLFARLNQLRKELGAKSNLDWLYFDTNYPAGWQNDRIANALNAEGWRIGSEWSSTYPRYNQWSHWANDENYGTGNKGYSSRIIRFIDNSRRDTWNPDPILGNSNVVEYEGWTSHNDYNAFIANVWQRNLPTKFLQRSDIMSWQDGRIAFANGAVATSSKKSISGHEIPTARTITFDGATVFKEGGSYLLPWSNGGSDRLYYWNPGNGSATWKLTNSWAAQKSVSLFMLTDTGRVKVAEIPVTNRSIRIPATKAKTAYVLYPTSKVPAAKTPNWGEGSHFANPGFYSGDTAGWNARGNVSVKHNDRGNFHLEFGKAQSQISQVLNLPAGDHSLWAWVQIDPTKTRPVGLAVDGTGVTPIDHQKGCGGHAESVITSTTAINATASDEYFGTYHQRLRVAFHSDGRPVTVTLKALAGNAIVSADDFRVVDAAVPSDPHVTPATVLFQNFEDVDTGYWPFVTGSAGMEGDARTQLSRRHEPYTQKGWNGRAMDSVLSGDWSLKMHEERNGIVLRTTTASAPLTGGGTRYRISFDYQADKPGYSFVTGHDKVSGKSVKEVITESHAMGVATSTTHFSTDIVVKDQPAWIGFTHQGEGDMSIDNLRIEKLDPRPISVTSTQAAVFPDACKPTPEPIQPAQPSASAPTTSGSPQAPGTGNRPNRYALPRTGADGAGLGFSSSEAASATAAVGVSRQGR | 0 | 100 | 1.8 | 100 | no significant difference | 0 | hydrolysis of the Core 3 disaccharide (in words) [5]: fully hydrolyzing
